Laboratory results as given in US20140302043A1.

Biological target: hemagglutinin (HA) of H1N1 virus strain A/Brazil/1403/2003 (influenza A virus H1N1, A/Brazil/1403/2003)
Test: cell-based or functional assay

| Substance | mAb minimum effective concentration (EC99, microneutralization on MDCK cells) |
| --- | --- |
| mAb CH65, recombinant intact IgG1 (antibody) | 3.12 µg/mL |
| mAb CH67 (antibody) | 0.195 µg/mL |
